Reference: patent US5723299

What was measured:
[1] = biological target: mouse somatostatin receptor SSTR2 (mouse); experiment: radioligand binding to CHO cells transfected with mouse SSTR2 in the presence of 1 µM somatostatin-14
[2] = biological target: human somatostatin receptor SSTR1 (human); experiment: radioligand binding to CHO cells transfected with human SSTR1, gamma counting
[3] = biological target: human somatostatin receptor SSTR1 (human); experiment: radioligand binding to CHO cells transfected with human SSTR1 in the presence of 1 µM somatostatin-14
[4] = biological target: mouse somatostatin receptor SSTR2 (mouse); experiment: radioligand binding to CHO cells transfected with mouse SSTR2, gamma counting

[125I]iodo-Tyr11-somatostatin-14 (from UniProt P61278) (peptide)
non-specific binding (radiolabeled ligand bound in the presence of 1 µM somatostatin-14) [1]: 225 cpm | control binding (radiolabeled ligand bound in the absence of inhibitor) [2]: 1420 cpm | non-specific binding (radiolabeled ligand bound in the presence of 1 µM somatostatin-14) [3]: 225 cpm | control binding (radiolabeled ligand bound in the absence of inhibitor) [4]: 2080 cpm
